Measured values from PMC7265302 (Nature Communications, 2020).

Assays:
Lpg2149, wild type = Lpg2149, wild type (Legionella pneumophila, UniProt Q5ZTL2 1-119); assay: ITC; details: both partners purified
Lpg2149 (aa 9–119) = Lpg2149 (aa 9–119) (Legionella pneumophila, UniProt Q5ZTL2 9-119); assay: crystal structure; details: both partners purified

Binder | Kd (Lpg2149, wild type) | binding result (Lpg2149 (aa 9–119))
MvcA, wild type (enzyme) MIVRGINMTKIKLESPGFMVHKKLKSMSQSYGVMMTGVPAEVLGQMQAERSIPSINKTGNLKQQIAKEVSKVCHMMTEPTQSCGQASNDVCELLLGKIEAEKFHFTKYEALSADGDNLKNVLENTAPSSTNLLIRFEIDREDPPIVLVKTKNENFNPETAVKNKIYLLENKLYFIDKMGNLFNLGPGKKKCTQLFNAIGDSAEYSLCDPFVLEEPEKPEDFAISEIVDIFNEQKERFDFWIGSHSFTIYIPQTLGESPRQFYPYQAYFGSHTLQDWFVSDKDEYLSRIGIDKYIEKLAVLGKTTNTKERSDIYAEFFSKRGREAFFCAHLNEKRQPLRVKFKITEINPELALKNLQETQEFIDTHPGENPSDKVENYRNRAKLAMTEHLESLLDIKPESSPSLFWKNVDKKEQEMTDSSRYKKGPS | ~28.1 nM | –
MvcA (aa 1–400) (enzyme) MIVRGINMTKIKLESPGFMVHKKLKSMSQSYGVMMTGVPAEVLGQMQAERSIPSINKTGNLKQQIAKEVSKVCHMMTEPTQSCGQASNDVCELLLGKIEAEKFHFTKYEALSADGDNLKNVLENTAPSSTNLLIRFEIDREDPPIVLVKTKNENFNPETAVKNKIYLLENKLYFIDKMGNLFNLGPGKKKCTQLFNAIGDSAEYSLCDPFVLEEPEKPEDFAISEIVDIFNEQKERFDFWIGSHSFTIYIPQTLGESPRQFYPYQAYFGSHTLQDWFVSDKDEYLSRIGIDKYIEKLAVLGKTTNTKERSDIYAEFFSKRGREAFFCAHLNEKRQPLRVKFKITEINPELALKNLQETQEFIDTHPGENPSDKVENYRNRAKLAMTEHLESLLDIKPESS | – | binds
